Data taken from patent publication US20200188541A1.

Key:
[1] = target: HER2 extracellular domain (coated on magnetic beads) (UniProt P04626); test: Lindmo method, magnetic beads coated with HER2 extracellular domain (BSA beads as negative control), paired-label
[2] = target: Human epidermal growth factor receptor 2 (HER2) on BT474M1 human breast carcinoma cells (human) (UniProt P04626); test: saturation binding of radiolabeled VHH on BT474M1 cells at 4 C, non-specific binding with 100-fold excess trastuzumab

Substance | immunoreactive fraction [1] | Kd [2]
[^131I]SGMIB-5F7 VHH | 84.5% | 
[^211At]SAGMB-5F7 VHH | 83.5% | 4.5 nM
iso-[^131I]SGMIB-5F7 VHH | 81.8% | 
iso-[^211At]SAGMB-5F7 VHH | 81.3% | 
